Data: the supplement of paper PMC6757056
± gives the standard deviation of the averaged measurements.

B1: library; a variant is named by its letters at N, in order (parent)
chain: GCUGUCACCGAGAAACUGUGAAGUAUAUCUUAAACCUGGGCACUUAAAAGAUAUAUGGAGUUAGUAGUGCAACCUGCUCGGUCUGAUGAGUCCNNNNNNGGACGAAACAGC

What was measured:
[1] = variants of: B1; experiment: FACS-Seq fitted mean relative fluorescence mCherry/BFP without ligand (log10 relative fluorescence); HEK293T; ligand: cyclic di-GMP (c-di-GMP-II aptamer); higher = higher reporter protein expression; settings: ligand present: no
How it was run: (§1)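 Enriched HEK293T cells carrying, by lentivirus, an mCherry reporter with the ribozyme switch and an EF1α-BFP marker spent 48 h with or without ligand and were sorted into 6 bins by mCherry/BFP. MiSeq sequencing of PCR-amplified bin genomic DNA gave bin counts. Fluorescence was calculated as the fitted normal mean of those counts. Counts were binned on log10(mCherry/BFP), and means were scaled to five spiked-in control ribozymes.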

[2] = variants of: B1; experiment: normalized RNA/DNA level without ligand (relative to sTRSVctl = 100) (log10 (% of sTRSVctl)); HEK293T; ligand: cyclic di-GMP (c-di-GMP-II aptamer); higher = less ribozyme self-cleavage, higher mRNA level; settings: reporter: mCherry (pCS4076), ligand present: no
Description: (§2)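 Hammerhead (sTRSV) ribozyme switch libraries with a ligand aptamer grafted on stem I and a randomized N4-6 loop II, cloned into the 3' UTR of mCherry and transiently transfected into HEK293T cells; RNA-Seq 72 h post transfection with ligand added 1 h before transfection; RNA read count / plasmid DNA read count normalized to the non-cleaving sTRSVctl (x100), log10; sequences with >100 DNA reads. FACS-Seq: lentiviral library sorted into 6 bins after 48 h ligand, log-normal fit mean of mCherry/BFP scaled to controls. Printed sequences are partial switch sequences.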

[3] = variants of: B1; experiment: FACS-Seq fitted mean relative fluorescence mCherry/BFP with ligand (log10 relative fluorescence); HEK293T; ligand: cyclic di-GMP (c-di-GMP-II aptamer); ligand concentration (+) FACS-Seq: 1 mM; higher = higher reporter protein expression; settings: ligand present: yes
How it was run: as §1

[4] = variants of: B1; experiment: normalized RNA/DNA level with ligand (relative to sTRSVctl = 100) (log10 (% of sTRSVctl)); HEK293T; ligand: cyclic di-GMP (c-di-GMP-II aptamer); ligand concentration (+) RNA-Seq: 1 mM; higher = less ribozyme self-cleavage, higher mRNA level; settings: reporter: mCherry (pCS4076), ligand present: yes
Description: as §2

| Variant | FACS-Seq fitted mean (log10) [1] | normalized RNA/DNA level without ligand (log10) [2] | FACS-Seq fitted mean (log10) [3] | normalized RNA/DNA level with ligand (log10) [4] |
| --- | --- | --- | --- | --- |
| CGAAAA | -0.423 ± 0.02 | 1.26 ± 0.084 | -0.315 ± 0.07 | 1.47 ± 0.1 |
| CGAAAC | -0.432 ± 0.051 | 1.62 ± 0.048 | -0.267 ± 0.02 | 1.77 ± 0.097 |
| AGAUUA | -0.549 ± 0.084 | 1.49 ± 0.078 | -0.245 ± 0.019 | 1.69 ± 0.15 |
| UGAAUC | -0.558 ± 0.0095 | 1.72 ± 0.011 | -0.4 ± 0.028 | 1.85 ± 0.083 |
| UGAUAG | -0.125 ± 0.093 | 1.696 ± 0.015 | 0.191 ± 0.081 | 1.83 ± 0.12 |
| UGAUAU | -0.406 ± 0.087 | 1.649 ± 0.0089 | -0.0482 ± 0.1 | 1.82 ± 0.08 |
| UGAUAC | -0.0926 ± 0.067 | 1.69 ± 0.02 | 0.197 ± 0.054 | 1.8 ± 0.12 |
| CCGGGG | -0.589 ± 0.03 | 1.43 ± 0.022 | -0.295 ± 0.011 | 1.62 ± 0.11 |
| UGAUGU | -0.179 ± 0.057 | 1.63 ± 0.052 | 0.187 ± 0.058 | 1.84 ± 0.089 |
| UGAUGA | -0.253 ± 0.0055 | 1.58 ± 0.033 | 0.00931 ± 0.037 | 1.8 ± 0.099 |
| CGAAUU | -0.504 ± 0.036 | 1.38 ± 0.11 | -0.238 ± 0.016 | 1.57 ± 0.088 |
| CGAAUA | -0.507 ± 0.0079 | 1.24 ± 0.091 | -0.209 ± 0.083 | 1.45 ± 0.086 |
| ACUGGU | -0.466 ± 0.02 | 1.52 ± 0.024 | -0.166 ± 0.029 | 1.76 ± 0.079 |
| ACUGGG | -0.467 ± 0.024 | 1.58 ± 0.07 | -0.104 ± 0.015 | 1.69 ± 0.11 |
| ACUGGA | -0.72 ± 0.0076 | 1.39 ± 0.091 | -0.5113 ± 0.0047 | 1.59 ± 0.087 |
| AGAACU | -0.833 ± 0.11 | 1.68 ± 0.031 | -0.561 ± 0.02 | 1.82 ± 0.11 |
| AGAACA | 0.105 ± 0.17 | 1.53 ± 0.036 | 0.348 ± 0.0047 | 1.72 ± 0.13 |
| ACGUGG | -0.532 ± 0.088 | 1.56 ± 0.11 | -0.352 ± 0.032 | 1.74 ± 0.058 |
| ACGUGU | -0.475 ± 0.012 | 1.45 ± 0.097 | -0.096 ± 0.051 | 1.69 ± 0.078 |
| ACGUGA | -0.228 ± 0.016 | 1.33 ± 0.052 | -0.0284 ± 0.061 | 1.54 ± 0.096 |
| GCUCAU | -0.503 ± 0.042 | 1.66 ± 0.0087 | -0.178 ± 0.097 | 1.78 ± 0.1 |
| GCGUCG | -0.555 ± 0.037 | 1.64 ± 0.037 | -0.312 ± 0.016 | 1.77 ± 0.11 |
| CGAAGA | -0.38091 ± 0.00015 | 1.37 ± 0.096 | -0.0195 ± 0.04 | 1.65 ± 0.075 |
| GCGGUU | -0.562 ± 0.021 | 1.6 ± 0.044 | -0.254 ± 0.0055 | 1.75 ± 0.11 |

| Variant | FACS-Seq fitted mean (log10) [1] | normalized RNA/DNA level without ligand (log10) [2] | FACS-Seq fitted mean (log10) [3] | normalized RNA/DNA level with ligand (log10) [4] |
| --- | --- | --- | --- | --- |
| CGACGA | -0.45 ± 0.042 | 1.5 ± 0.094 | -0.105 ± 0.043 | 1.71 ± 0.071 |
| GCUGUU | -0.596 ± 0.057 | 1.63 ± 0.059 | -0.418 ± 0.084 | 1.79 ± 0.082 |
| GCUGUA | -0.0986 ± 0.038 | 1.6 ± 0.04 | 0.213 ± 0.017 | 1.74 ± 0.12 |
| GCUGUG | -0.283 ± 0.07 | 1.64 ± 0.018 | -0.00737 ± 0.013 | 1.79 ± 0.085 |
| GCUCUU | -0.277 ± 0.12 | 1.66 ± 0.07 | -0.215 ± 0.015 | 1.82 ± 0.16 |
| GCUCUA | -0.242 ± 0.011 | 1.64 ± 0.039 | 0.0781 ± 0.02 | 1.8 ± 0.025 |
| AGAAUC | -0.291 ± 0.023 | 1.63 ± 0.06 | -0.0843 ± 0.044 | 1.78 ± 0.073 |
| AGAAUU | 0.202 ± 0.13 | 1.65 ± 0.072 | 0.346 ± 0.074 | 1.8 ± 0.12 |
| AGAAUG | -0.367 ± 0.045 | 1.48 ± 0.12 | -0.126 ± 0.14 | 1.68 ± 0.043 |
| CGAACA | -0.456 ± 0.075 | 1.58 ± 0.045 | -0.276 ± 0.0035 | 1.7 ± 0.074 |
| GCUUCU | -0.15612 ± 8.5e-05 | 1.74 ± 0.019 | 0.0598 ± 0.018 | 1.87 ± 0.11 |
| GCUUCA | -0.32 ± 0.093 | 1.668 ± 0.013 | 0.00326 ± 0.00018 | 1.81 ± 0.11 |
| AGACGA | -0.409 ± 0.019 | 1.54 ± 0.063 | -0.212 ± 0.013 | 1.73 ± 0.12 |
| AGACGC | -0.232 ± 0.099 | 1.65 ± 0.066 | -0.0488 ± 0.032 | 1.81 ± 0.098 |
| AGACGU | -1.017 ± 0.0037 | 1.573 ± 0.012 | -0.759 ± 0.072 | 1.75 ± 0.13 |
| UGAGUC | -0.147 ± 0.039 | 1.7273 ± 0.0012 | 0.117 ± 0.074 | 1.87 ± 0.14 |
| UGAGUG | -0.0499 ± 0.13 | 1.7246 ± 0.00091 | 0.259 ± 0.047 | 1.83 ± 0.091 |
| CCUAUA | -0.492 ± 0.012 | 1.43 ± 0.12 | -0.121 ± 0.047 | 1.65 ± 0.067 |
| CCUUAA | -0.397 ± 0.009 | 1.45 ± 0.092 | -0.161 ± 0.043 | 1.63 ± 0.12 |
| CCUUAG | -0.183 ± 0.044 | 1.64 ± 0.026 | 0.161 ± 0.06 | 1.83 ± 0.12 |
| ACUGAA | -0.493 ± 0.087 | 1.43 ± 0.09 | -0.161 ± 0.014 | 1.64 ± 0.074 |
| ACUGAU | -0.368 ± 0.075 | 1.43 ± 0.11 | -0.128 ± 0.13 | 1.62 ± 0.11 |
| CGAUGA | -0.364 ± 0.049 | 1.47 ± 0.059 | -0.172 ± 0.032 | 1.62 ± 0.12 |
| CGAUGC | -0.127 ± 0.16 | 1.722 ± 0.014 | 0.202 ± 0.062 | 1.88 ± 0.049 |

| Variant | FACS-Seq fitted mean (log10) [1] | normalized RNA/DNA level without ligand (log10) [2] | FACS-Seq fitted mean (log10) [3] | normalized RNA/DNA level with ligand (log10) [4] |
| --- | --- | --- | --- | --- |
| UCGGUA | -0.583 ± 0.023 | 1.31 ± 0.18 | -0.2658 ± 0.00058 | 1.52 ± 0.054 |
| UCGGUC | -0.238 ± 0.16 | 1.675 ± 0.0093 | 0.0705 ± 0.033 | 1.83 ± 0.1 |
| UCUGCU | -0.406 ± 0.013 | 1.786 ± 0.0052 | -0.176 ± 0.02 | 1.88 ± 0.081 |
| GGACCC | 0.129 ± 0.17 | 1.86 ± 0.022 | 0.32 ± 0.061 | 1.93 ± 0.086 |
| GCUCGU | -0.452 ± 0.016 | 1.692 ± 0.015 | -0.0822 ± 0.049 | 1.83 ± 0.038 |
| AGAGAA | -0.335 ± 0.073 | 1.33 ± 0.12 | -0.0362 ± 0.068 | 1.54 ± 0.1 |
| ACUAUA | -0.358 ± 0.029 | 1.53 ± 0.057 | 0.067 ± 0.087 | 1.72 ± 0.12 |
| GCGUAU | -0.304 ± 0.056 | 1.48 ± 0.043 | 0.0112 ± 0.012 | 1.72 ± 0.12 |
| GCGUAG | -0.637 ± 0.047 | 1.67 ± 0.074 | -0.348 ± 0.095 | 1.8 ± 0.085 |
| ACUAAG | -0.34 ± 0.089 | 1.5 ± 0.12 | -0.165 ± 0.11 | 1.71 ± 0.026 |
| ACUAAA | -0.416 ± 0.14 | 1.41 ± 0.045 | -0.0324 ± 0.021 | 1.62 ± 0.088 |
| ACUAAU | -0.784 ± 0.024 | 1.47 ± 0.052 | -0.433 ± 0.047 | 1.68 ± 0.11 |
| UCUAAA | -0.692 ± 0.041 | 1.495 ± 0.0055 | -0.441 ± 0.055 | 1.74 ± 0.15 |
| UCUAAU | -0.491 ± 0.013 | 1.6 ± 0.017 | -0.327 ± 0.062 | 1.78 ± 0.1 |
| CGAGCG | -0.783 ± 0.013 | 1.81 ± 0.023 | -0.5474 ± 0.004 | 1.9 ± 0.12 |
| ACGGUA | -0.397 ± 0.031 | 1.37 ± 0.069 | -0.0373 ± 0.057 | 1.57 ± 0.14 |
| ACGGUU | -0.529 ± 0.031 | 1.22 ± 0.074 | -0.237 ± 0.11 | 1.4 ± 0.1 |
| ACUCAG | -0.836 ± 0.044 | 1.61 ± 0.031 | -0.677 ± 0.16 | 1.77 ± 0.1 |
| UGACGC | -0.22 ± 0.01 | 1.73 ± 0.027 | 0.123 ± 0.016 | 1.84 ± 0.17 |
| ACUGCU | -0.0841 ± 0.15 | 1.616 ± 0.01 | 0.249 ± 0.013 | 1.8 ± 0.14 |
| UCUGAU | -0.331 ± 0.024 | 1.6 ± 0.061 | -0.0535 ± 0.0022 | 1.83 ± 0.14 |
| UCUGAA | -0.341 ± 0.042 | 1.51 ± 0.079 | -0.0714 ± 0.032 | 1.73 ± 0.099 |
| UGACUC | -0.0587 ± 0.12 | 1.726 ± 0.0085 | 0.268 ± 0.025 | 1.86 ± 0.12 |
| GCGUUU | -0.452 ± 0.069 | 1.6 ± 0.026 | -0.302 ± 0.06 | 1.77 ± 0.14 |
